Laboratory results reported in paper PMC9076029 (Journal of Molecular Biology, 2022).
Where two headings read alike, the source gives them in different places.

What was measured:
Assay in all cases: ITC
[1] = biological target: T1, SARS-CoV-2 spike protein receptor binding domain, wild-type (SARS-CoV-2, UniProt P0DTC2)
[2] = biological target: T1, SARS-CoV-2 spike protein receptor …; remark: listed apart in the source
[3] = biological target: T1, SARS-CoV-2 spike protein receptor …; remark: listed apart in the source
[4] = biological target: T1, SARS-CoV-2 spike protein receptor …; remark: listed apart in the source

B1: LY-CoV555 single chain variable fragment (scFv, V domains shown)
VH: QVQLVQSGAEVKKPGSSVKVSCKASGGTFSNYAISWVRQAPGQGLEWMGRIIPILGIANYAQKFQGRVTITADKSTSTAYMELSSLRSEDTAVYYCARGYYEARHYYYYYAMDVWGQGTAVTVSS
VL: not shown
Kd [1]: 3.8 ± 1.9 nM | Kd [2]: 3.9 ± 1.9 nM

B2: LY-CoV016 single chain variable fragment (scFv, V domains shown)
VH: EVQLVESGGGLVQPGGSLRLSCAASGFTVSSNYMSWVRQAPGKGLEWVSVIYSGGSTFYADSVKGRFTISRDNSMNTLFLQMNSLRAEDTAVYYCARVLPMYGDYLDYWGQGTLVTVSS
VL: not shown
Kd [3]: 49.3 ± 10.1 nM | dH [3]: -11.7 ± 0.1 kcal/mol

B3: REGN10987 single chain variable fragment (scFv, V domains shown)
VH: QVQLVESGGGVVQPGRSLRLSCAASGFTFSNYAMYWVRQAPGKGLEWVAVISYDGSNKYYADSVKGRFTISRDNSKNTLYLQMNSLRTEDTAVYYCASGSDYGDYLLVYWGQGTLVTVSS
VL: QSALTQPASVSGSPGQSITISCTGTSSDVGGYNYVSWYQQHPGKAPKLMIYDVSKRPSGVSNRFSGSKSGNTASLTISGLQSEDEADYYCNSLTSISTWVFGGGTKLTVL
Kd [4]: 34.3 ± 8.1 nM
